# Patent US20100120024
# pKd: −log10 of the molar value. Read-outs that look alike come from different tables or passages of the source.
# Experiments:
# [1] = tested on: IgE (Homo sapiens); test: filter; settings: 2'-OMe A,G,U; 2'-deoxy C; pool; DPBS with Ca2+ and Mg2+
# [2] = molecular target: von Willebrand factor (vWF) (Homo sapiens) (UniProt P04275); test: filter; settings: 2'-OMe A,G,U; 2'-deoxy C; pool; DPBS with Ca2+ and Mg2+
# [3] = molecular target: von Willebrand factor A1 domain (Homo sapiens) (UniProt P04275); test: filter; settings: 2'-OMe A,G,U; 2'-deoxy C; pool; DPBS with Ca2+ and Mg2+
# [4] = molecular target: T7 RNA polymerase Y639L/H784A/K378R (Bacteriophage T7) (UniProt P00573); settings: MNA yield, 8 mM MgCl2, 2.5 mM MnCl2
# [5] = molecular target: T7 RNA polymerase P266L/Y639L/H784A/K378R (Bacteriophage T7) (UniProt P00573); settings: 11 ug/ml enzyme (65 at 2.6, 13 at 0.66, 8.3 at 0.16 ug/ml); 8 mM MgCl2, 2.5 mM MnCl2
# [6] = molecular target: T7 RNA polymerase Y639L/H784A/K378R (Bacteriophage T7) (UniProt P00573); settings: 2.1 ug/ml enzyme; 2'-OMe NTPs, 8 mM MgCl2, 2.5 mM MnCl2, 37 C
sequence,measurement,setting,value
"GGGAGAATTCCGACCACAAGNNNNNNNNNNNNNNNNNNNNNNNNNNNNNNNNNNNNNNNNCATATGTGCGTCTACATGGATCCTCA [ARC4218 dCmD round 6 pool, IgE selection]",pKd,[1],8.10
"GGGAGAATTCCGACCACAAGNNNNNNNNNNNNNNNNNNNNNNNNNNNNNNNNNNNNNNNNCATATGTGCGTCTACATGGATCCTCA [ARC4218 dCmD round 6 pool, vWF selection]",pKd,[2],8.70
same,pKd,[3],8.40
GGGAGAATTCCGACCAGAAGCTTNNNNNNNNNNNNNNNNNNNNNNNNNNNNNNNNNNNNNNNNCATATGTGCGTCTACATGGATCCTCA (double strand),activity,[4]; dCmD yield 365 pmol,473 pmol
GGGAGAGACAAGCTTGGGTCNNNNNNNNNNNNNNNNNNNNNNNNNNNNNNNNNNNNNNNNAGAAGAGAAAGAGAAGTTAATTAAGGATCCTCAG (double strand),activity,[4]; dCmD yield 327 pmol,404 pmol
TAATACGACTCACTATAGGGGAGTACAATAACGTTCTCGNNNNNNNNNNNNNNNNNNNNNNNNNNNNNNGGATCGTTACGACTAGCATCGATG (double strand) [ARC2118 transcription template],activity (normalized MNA transcript yield),[5],130
same,activity (normalized MNA transcript yield),[6],100
